# Test results taken from article PMC9046087, “Structural basis of tethered agonism of the adhesion GPCRs ADGRD1 and ADGRF1” (Nature, 2022).
# Test system: ADGRD1
# Assay: Cell-surface expression by flow cytometry, ADGRD1
# Assay type: cell-based, human
# Conditions: ADGRD1 constructs (pD1 Gs part of table), anti-Flag antibody, three independent measurements in duplicate
# Method: The wild-type ADGRD1 and ADGRF1 and mutants used in functional studies were constructed into a pTT5 vector with a Flag tag at the N terminus for receptor expression measurement. The basal activity of ADGRD1 and ADGRF1 in mediating Gs signalling was measured by a cAMP accumulation assay using a LANCE Ultra cAMP detection kit (PerkinElmer) following the manufacturer’s instruction. In brief, 2 ml HEK293F cells (Invitrogen; cells were routinely tested for mycoplasma contamination) at a density of 1.2 × 10^6 cells per ml were transiently transfected with 2,000 ng plasmid of the wild-type or mutant receptor and cultured at 37 °C for 48 h with 5% CO2 atmosphere in a shaker shaking at 220 rpm. After collection, the cell-surface expression of the receptors was measured by incubating 10 μl cells with 15 μl monoclonal anti-Flag M2-FITC antibody (Sigma; 1:120 diluted in TBS supplemented with 4% BSA and 20% viability staining solution 7-AAD (Invitrogen)) at 4 °C for 20 min. After incubation, 175 μl TBS buffer was added and the fluorescent signal was measured using a flow cytometry reader (Guava easyCyte HT, Millipore).
row,Molecule,Cell-surface expression (% of WT)
1,"F716^5.36bA (protein, UniProt Q6QNK2 26-874, looked up, variant F716A) Adhesion G-protein coupled …: VYSRSQDHPGFQVLASASHYWPLENVDGIHELQDTTGDIVEGKVNKGIYLKEEKGVTLLYYGRYNSSCISKPEQCGPEGVTFSFFWKTQGEQSRPIPSAYGGQVISNGFKVCSSGGRGSVELYTRDNSMTWEASFSPPGPYWTHVLFTWKSKEGLKVYVNGTLSTSDPSGKVSRDYGESNVNLVIGSEQDQAKCYENGAFDEFIIWERALTPDEIAMYFTAAIGKHALLSSTLPSLFMTSTASPVMPTDAYHPIITNLTEERKTFQSPGVILSYLQNVSLSLPSKSLSEQTALNLTKTFLKAVGEILLLPGWIALSEDSAVVLSLIDTIDTVMGHVSSNLHGSTPQVTVEGSSAMAEFSVAKILPKTVNSSHYRFPAHGQSFIQIPHEAFHRHAWSTVVGLLYHSMHYYLNNIWPAHTKIAEAMHHQDCLLFATSHLISLEVSPPPTLSQNLSGSPLITVHLKHRLTRKQHSEATNSSNRVFVYCAFLDFSSGEGVWSNHGCALTRGNLTYSVCRCTHLTNFAILMQVVPLELARGHQVALSSISYVGCSLSVLCLVATLVTFAVLSSVSTIRNQRYHIHANLSFAVLVAQVLLLISFRLEPGTTPCQVMAVLLHYFFLSAFAWMLVEGLHLYSMVIKVFGSEDSKHRYYYGMGWGFPLLICIISLSFAMDSYGTSNNCWLSLASGAIWAAVAPALFVIVVNIGILIAVTRVISQISADNYKIHGDPSAFKLTAKAVAVLLPILGTSWVFGVLAVNGCAVVFQYMFATLNSLQGLFIFLFHCLLNSEVRAAFKHKTKVWSLTSSSARTSNAKPFHSDLMNGTRPGMASTKLSPWDKSSHSAHRVDLSAV",98 ± 3 % of WT
2,"W773^6.53bA (protein, UniProt Q6QNK2 26-874, looked up, variant W773A) Adhesion G-protein coupled …: VYSRSQDHPGFQVLASASHYWPLENVDGIHELQDTTGDIVEGKVNKGIYLKEEKGVTLLYYGRYNSSCISKPEQCGPEGVTFSFFWKTQGEQSRPIPSAYGGQVISNGFKVCSSGGRGSVELYTRDNSMTWEASFSPPGPYWTHVLFTWKSKEGLKVYVNGTLSTSDPSGKVSRDYGESNVNLVIGSEQDQAKCYENGAFDEFIIWERALTPDEIAMYFTAAIGKHALLSSTLPSLFMTSTASPVMPTDAYHPIITNLTEERKTFQSPGVILSYLQNVSLSLPSKSLSEQTALNLTKTFLKAVGEILLLPGWIALSEDSAVVLSLIDTIDTVMGHVSSNLHGSTPQVTVEGSSAMAEFSVAKILPKTVNSSHYRFPAHGQSFIQIPHEAFHRHAWSTVVGLLYHSMHYYLNNIWPAHTKIAEAMHHQDCLLFATSHLISLEVSPPPTLSQNLSGSPLITVHLKHRLTRKQHSEATNSSNRVFVYCAFLDFSSGEGVWSNHGCALTRGNLTYSVCRCTHLTNFAILMQVVPLELARGHQVALSSISYVGCSLSVLCLVATLVTFAVLSSVSTIRNQRYHIHANLSFAVLVAQVLLLISFRLEPGTTPCQVMAVLLHYFFLSAFAWMLVEGLHLYSMVIKVFGSEDSKHRYYYGMGWGFPLLICIISLSFAMDSYGTSNNCWLSLASGAIWAFVAPALFVIVVNIGILIAVTRVISQISADNYKIHGDPSAFKLTAKAVAVLLPILGTSAVFGVLAVNGCAVVFQYMFATLNSLQGLFIFLFHCLLNSEVRAAFKHKTKVWSLTSSSARTSNAKPFHSDLMNGTRPGMASTKLSPWDKSSHSAHRVDLSAV",69 ± 2 % of WT
3,"H656^3.53bA (protein, UniProt Q6QNK2 26-874, looked up, variant H656A) Adhesion G-protein coupled …: VYSRSQDHPGFQVLASASHYWPLENVDGIHELQDTTGDIVEGKVNKGIYLKEEKGVTLLYYGRYNSSCISKPEQCGPEGVTFSFFWKTQGEQSRPIPSAYGGQVISNGFKVCSSGGRGSVELYTRDNSMTWEASFSPPGPYWTHVLFTWKSKEGLKVYVNGTLSTSDPSGKVSRDYGESNVNLVIGSEQDQAKCYENGAFDEFIIWERALTPDEIAMYFTAAIGKHALLSSTLPSLFMTSTASPVMPTDAYHPIITNLTEERKTFQSPGVILSYLQNVSLSLPSKSLSEQTALNLTKTFLKAVGEILLLPGWIALSEDSAVVLSLIDTIDTVMGHVSSNLHGSTPQVTVEGSSAMAEFSVAKILPKTVNSSHYRFPAHGQSFIQIPHEAFHRHAWSTVVGLLYHSMHYYLNNIWPAHTKIAEAMHHQDCLLFATSHLISLEVSPPPTLSQNLSGSPLITVHLKHRLTRKQHSEATNSSNRVFVYCAFLDFSSGEGVWSNHGCALTRGNLTYSVCRCTHLTNFAILMQVVPLELARGHQVALSSISYVGCSLSVLCLVATLVTFAVLSSVSTIRNQRYHIHANLSFAVLVAQVLLLISFRLEPGTTPCQVMAVLLHYFFLSAFAWMLVEGLALYSMVIKVFGSEDSKHRYYYGMGWGFPLLICIISLSFAMDSYGTSNNCWLSLASGAIWAFVAPALFVIVVNIGILIAVTRVISQISADNYKIHGDPSAFKLTAKAVAVLLPILGTSWVFGVLAVNGCAVVFQYMFATLNSLQGLFIFLFHCLLNSEVRAAFKHKTKVWSLTSSSARTSNAKPFHSDLMNGTRPGMASTKLSPWDKSSHSAHRVDLSAV",86 ± 10 % of WT
4,"H605^2.50bA (protein, UniProt Q6QNK2 26-874, looked up, variant H605A) Adhesion G-protein coupled …: VYSRSQDHPGFQVLASASHYWPLENVDGIHELQDTTGDIVEGKVNKGIYLKEEKGVTLLYYGRYNSSCISKPEQCGPEGVTFSFFWKTQGEQSRPIPSAYGGQVISNGFKVCSSGGRGSVELYTRDNSMTWEASFSPPGPYWTHVLFTWKSKEGLKVYVNGTLSTSDPSGKVSRDYGESNVNLVIGSEQDQAKCYENGAFDEFIIWERALTPDEIAMYFTAAIGKHALLSSTLPSLFMTSTASPVMPTDAYHPIITNLTEERKTFQSPGVILSYLQNVSLSLPSKSLSEQTALNLTKTFLKAVGEILLLPGWIALSEDSAVVLSLIDTIDTVMGHVSSNLHGSTPQVTVEGSSAMAEFSVAKILPKTVNSSHYRFPAHGQSFIQIPHEAFHRHAWSTVVGLLYHSMHYYLNNIWPAHTKIAEAMHHQDCLLFATSHLISLEVSPPPTLSQNLSGSPLITVHLKHRLTRKQHSEATNSSNRVFVYCAFLDFSSGEGVWSNHGCALTRGNLTYSVCRCTHLTNFAILMQVVPLELARGHQVALSSISYVGCSLSVLCLVATLVTFAVLSSVSTIRNQRYHIAANLSFAVLVAQVLLLISFRLEPGTTPCQVMAVLLHYFFLSAFAWMLVEGLHLYSMVIKVFGSEDSKHRYYYGMGWGFPLLICIISLSFAMDSYGTSNNCWLSLASGAIWAFVAPALFVIVVNIGILIAVTRVISQISADNYKIHGDPSAFKLTAKAVAVLLPILGTSWVFGVLAVNGCAVVFQYMFATLNSLQGLFIFLFHCLLNSEVRAAFKHKTKVWSLTSSSARTSNAKPFHSDLMNGTRPGMASTKLSPWDKSSHSAHRVDLSAV",102 ± 7 % of WT
5,"K760^6.40bA (protein, UniProt Q6QNK2 26-874, looked up, variant K760A) Adhesion G-protein coupled …: VYSRSQDHPGFQVLASASHYWPLENVDGIHELQDTTGDIVEGKVNKGIYLKEEKGVTLLYYGRYNSSCISKPEQCGPEGVTFSFFWKTQGEQSRPIPSAYGGQVISNGFKVCSSGGRGSVELYTRDNSMTWEASFSPPGPYWTHVLFTWKSKEGLKVYVNGTLSTSDPSGKVSRDYGESNVNLVIGSEQDQAKCYENGAFDEFIIWERALTPDEIAMYFTAAIGKHALLSSTLPSLFMTSTASPVMPTDAYHPIITNLTEERKTFQSPGVILSYLQNVSLSLPSKSLSEQTALNLTKTFLKAVGEILLLPGWIALSEDSAVVLSLIDTIDTVMGHVSSNLHGSTPQVTVEGSSAMAEFSVAKILPKTVNSSHYRFPAHGQSFIQIPHEAFHRHAWSTVVGLLYHSMHYYLNNIWPAHTKIAEAMHHQDCLLFATSHLISLEVSPPPTLSQNLSGSPLITVHLKHRLTRKQHSEATNSSNRVFVYCAFLDFSSGEGVWSNHGCALTRGNLTYSVCRCTHLTNFAILMQVVPLELARGHQVALSSISYVGCSLSVLCLVATLVTFAVLSSVSTIRNQRYHIHANLSFAVLVAQVLLLISFRLEPGTTPCQVMAVLLHYFFLSAFAWMLVEGLHLYSMVIKVFGSEDSKHRYYYGMGWGFPLLICIISLSFAMDSYGTSNNCWLSLASGAIWAFVAPALFVIVVNIGILIAVTRVISQISADNYKIHGDPSAFKLTAAAVAVLLPILGTSWVFGVLAVNGCAVVFQYMFATLNSLQGLFIFLFHCLLNSEVRAAFKHKTKVWSLTSSSARTSNAKPFHSDLMNGTRPGMASTKLSPWDKSSHSAHRVDLSAV",126 ± 21 % of WT
6,"Q798^7.49bA (protein, UniProt Q6QNK2 26-874, looked up, variant Q798A) Adhesion G-protein coupled …: VYSRSQDHPGFQVLASASHYWPLENVDGIHELQDTTGDIVEGKVNKGIYLKEEKGVTLLYYGRYNSSCISKPEQCGPEGVTFSFFWKTQGEQSRPIPSAYGGQVISNGFKVCSSGGRGSVELYTRDNSMTWEASFSPPGPYWTHVLFTWKSKEGLKVYVNGTLSTSDPSGKVSRDYGESNVNLVIGSEQDQAKCYENGAFDEFIIWERALTPDEIAMYFTAAIGKHALLSSTLPSLFMTSTASPVMPTDAYHPIITNLTEERKTFQSPGVILSYLQNVSLSLPSKSLSEQTALNLTKTFLKAVGEILLLPGWIALSEDSAVVLSLIDTIDTVMGHVSSNLHGSTPQVTVEGSSAMAEFSVAKILPKTVNSSHYRFPAHGQSFIQIPHEAFHRHAWSTVVGLLYHSMHYYLNNIWPAHTKIAEAMHHQDCLLFATSHLISLEVSPPPTLSQNLSGSPLITVHLKHRLTRKQHSEATNSSNRVFVYCAFLDFSSGEGVWSNHGCALTRGNLTYSVCRCTHLTNFAILMQVVPLELARGHQVALSSISYVGCSLSVLCLVATLVTFAVLSSVSTIRNQRYHIHANLSFAVLVAQVLLLISFRLEPGTTPCQVMAVLLHYFFLSAFAWMLVEGLHLYSMVIKVFGSEDSKHRYYYGMGWGFPLLICIISLSFAMDSYGTSNNCWLSLASGAIWAFVAPALFVIVVNIGILIAVTRVISQISADNYKIHGDPSAFKLTAKAVAVLLPILGTSWVFGVLAVNGCAVVFQYMFATLNSLAGLFIFLFHCLLNSEVRAAFKHKTKVWSLTSSSARTSNAKPFHSDLMNGTRPGMASTKLSPWDKSSHSAHRVDLSAV",96 ± 18 % of WT
